According to patent publication US20240209086A1 (PETMEDIX, published 2024):

Target: canine CD3 on canine T cells (canine PBMC) (canine, UniProt P27597 22-202)
Experiment: cell-based or functional assay

Chain of canine CD3 on canine T cells (canine PBMC) (P27597 22-202 limits assumed, chain 1 of 3): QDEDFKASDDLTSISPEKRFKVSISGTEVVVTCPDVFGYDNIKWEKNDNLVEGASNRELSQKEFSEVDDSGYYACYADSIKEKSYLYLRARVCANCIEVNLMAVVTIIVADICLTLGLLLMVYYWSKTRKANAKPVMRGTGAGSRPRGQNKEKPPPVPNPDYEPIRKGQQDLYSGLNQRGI
Chain of canine CD3 on canine T cells (canine PBMC) (chain, as listed by the source limits assumed, chain 2 of 3): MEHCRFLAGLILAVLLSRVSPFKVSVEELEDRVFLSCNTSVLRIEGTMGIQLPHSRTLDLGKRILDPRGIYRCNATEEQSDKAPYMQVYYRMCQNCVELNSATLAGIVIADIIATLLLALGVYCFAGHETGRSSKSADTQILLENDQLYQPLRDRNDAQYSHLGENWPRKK
Chain of canine CD3 on canine T cells (canine PBMC) (chain, as listed by the source limits assumed, chain 3 of 3): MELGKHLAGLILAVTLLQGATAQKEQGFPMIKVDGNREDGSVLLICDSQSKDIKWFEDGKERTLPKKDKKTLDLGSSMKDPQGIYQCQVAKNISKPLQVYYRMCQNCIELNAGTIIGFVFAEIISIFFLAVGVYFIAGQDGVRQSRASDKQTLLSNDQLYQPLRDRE

| Binder | CD25 Activation, Day 6, IS | CD25 Activation, Day 6, PB | CD25 Activation, Day 9, IS | CD25 Activation, Day 9, PB | IFNy Concentration pg/ml, Day 6, IS [pg/mL] | IFNy Concentration pg/ml, Day 9, IS [pg/mL] | IFNy Concentration pg/ml, Day 9, PB [pg/mL] | Ki67 Proliferation, Day 6, IS | Ki67 Proliferation, Day 6, PB | Ki67 Proliferation, Day 9, IS | Ki67 Proliferation, Day 9, PB |
| --- | --- | --- | --- | --- | --- | --- | --- | --- | --- | --- | --- |
| PMX158 (monospecific anti-canine CD3, canine IgG-B effector function deficient Fc) (antibody, V domains shown) VH: ELTLQESGPGLVKPSQTLSLTCVVSGGSVTRSYYWNWIRQRPGRGLEWMGYWTGTTNYNPAFQGRISITADTAKNQCSLQLSSMTTEDTAVYYCAREGGKLLGAFGHWGQGTLVTVSS VL: SYVLTQLPSKNVTLKQPAHITCGGDKIGSKSVHWYQQKLGQAPVLIIYYDSSRLTGIPERFSGANSGNTATLTISGALAEDEADYYCQVWDSSAKASVFGGGTHLTVL | 13.1 | 9.65 | 5.45 | 12.3 | 48.2 | 88.3 | 2440 | 2.63 | 0.54 | 0.45 | 0 |
| PMX159 (monospecific anti-canine CD3, canine IgG-B effector function deficient Fc) (antibody, V domains shown) VH: ELTLQESGPGLVKPSQTLSLTCVVSGGSVTRSYYWNWIRQRPGRGLEWMGYWTGSTIYNPTFQGRISITADTAKSQFSLQLRSMTTEDTAMYFCAREGGKSLGAFAYWGQGTLVTVSS VL: SYVLTQLPSKNVTLKQPAHITCGGDKIGSKNVHWYQQKLGQAPVMIIYYDSSRPTGIPERFSGANSGNTATLTISGALAEDEADYYCQVWDSSAKAAVFGGGTHLTVL | 11.3 | 11.5 | 9.13 | 13.1 | 137 | 262 | 3050 | 1.69 | 0.37 | 1.28 | 0 |
| PMX160 (monospecific anti-canine CD3, canine IgG-B effector function deficient Fc) (antibody) heavy: EVQMVESGGDLVKPGGSLRFSCVASGFTFSSYHMSWVRQAPGKGLQWVAYINSGGSRTSYADAVKGRFTISRDNAKNTLYLQMNSLRAEDTAVYYCASGRSPPPLGSFDYGLDYWGHGTSLFVSSASTTAPSVFPLAPSCGSTSGSTVALACLVSGYFPEPVTVSWNSGSLTSGVHTFPSVLQSSGLYSLSSMVTVPSSRWPSETFTCNVAHPASKTKVDKPVPKRENGRVPRPPDCPKCPAPESLGGPSVFIFPPKPKDTLLIARTPEVTCVVVDLGREDPEVQISWFVDGKQMQTAKTQPREEQFNGTYRVVSVLPIGHQDWLKGKQFTCKVNHIGLPSPIERTISKARGQAHQPSVYVLPPSREELSKNTVSLTCLIKDFFPPDIDVEWQSNGQQEPESKYRTTPPQLDEDGSYFLYSKLSVDKSRWQRGDTFICAVMHEALHNHYTQKSLSHSPGK VL: SYVLTQLPSKNVTLKQPAHITCGGDNIGSKSVHWYQQKLGQAPVLIIYYDSSRPTGIPERFSGANSGNTATLTISGALAEDEADYYCQVWDSSAKAWVFGEGTQLTVL | 10.6 | 9.42 | 7.14 | 5.98 | 36.5 | 114 | 1460 | 0.84 | 0.12 | 1.87 | 0.33 |
| PMX162 (monospecific anti-canine CD3, canine IgG-B effector function deficient Fc) (antibody) heavy: EMQLVESGGDLVKPGGSLRLSCVASGFTFSTYHMSWVRQAPGKGLQWVAYSNSGGTRTYYADAVKGRFTISRDNVKNTLYLQMNSLRAEDTAVYYCASEGSGGGRYGFKDYGMDYWGHGTSLFVSTASTTAPSVFPLAPSCGSTSGSTVALACLVSGYFPEPVTVSWNSGSLTSGVHTFPSVLQSSGLYSLSSMVTVPSSRWPSETFTCNVAHPASKTKVDKPVPKRENGRVPRPPDCPKCPAPESLGGPSVFIFPPKPKDTLLIARTPEVTCVVVDLGREDPEVQISWFVDGKQMQTAKTQPREEQFNGTYRVVSVLPIGHQDWLKGKQFTCKVNHIGLPSPIERTISKARGQAHQPSVYVLPPSREELSKNTVSLTCLIKDFFPPDIDVEWQSNGQQEPESKYRTTPPQLDEDGSYFLYSKLSVDKSRWQRGDTFICAVMHEALHNHYTQKSLSHSPGK VL: SYVLTQLPSKNVTLKQPAHITCGGDNIGSKSVHWYQQKLGQAPVLIIYYDSSRPTGIPERFSGANSGNTATLTISGALAEDEADYYCQVWDSSAKAWVFGEGTQLTVL | 16 | 8.64 | 8.75 | 10.4 | 61.1 | 89.2 | 330 | 1.73 | 0.36 | 0.51 | 0.43 |
| PMX173 (monospecific anti-canine CD3, canine IgG-B effector function deficient Fc) (antibody) heavy: EVQLVESGGDLVKPGGSLRLSCVASGFTFSTYHMSWVRQAPGKGLQWVAYSHSGGTRTYYADAVKGRFTISRDNGKNTLYLQMNSLRAEDTAVYYCASEGSGGGRYGFKDYGMDYWGHGTSLFVSTASTTAPSVFPLAPSCGSTSGSTVALACLVSGYFPEPVTVSWNSGSLTSGVHTFPSVLQSSGLYSLSSMVTVPSSRWPSETFTCNVAHPASKTKVDKPVPKRENGRVPRPPDCPKCPAPESLGGPSVFIFPPKPKDTLLIARTPEVTCVVVDLGREDPEVQISWFVDGKQMQTAKTQPREEQFNGTYRVVSVLPIGHQDWLKGKQFTCKVNHIGLPSPIERTISKARGQAHQPSVYVLPPSREELSKNTVSLTCLIKDFFPPDIDVEWQSNGQQEPESKYRTTPPQLDEDGSYFLYSKLSVDKSRWQRGDTFICAVMHEALHNHYTQKSLSHSPGK VL: SYVLTQLPSKNVTLKQPAHITCGGDNIGSKSVHWYQQKLGQAPVLIIYYDSSRPTGIPERFSGANSGNTATLTISGALAEDEADYYCQVWDSSAKAWVFGEGTQLTVL | 8.5 | 13.3 | 9.37 | 11.5 | 56.7 | 125 | 1110 | 1.01 | 0.57 | 1.38 | 0.34 |
| PMX163 (monospecific anti-canine CD3, canine IgG-B effector function deficient Fc) (antibody, V domains shown) VH: ELALQESGPGLVRPSQTLSLTCVVSGGSVTRSYYWNWIRQRPGRGLEWMGYWTGTTIYNPAFQGRISITVDTAKNQFSLHLISMTTEDTAVYYCGREGGSSLGAIAYWGQGTRVTVSS VL: SYVLTQLPSKNVTLKQPAHITCGGDNIGSKSVHWYQQKLGQAPVLIIYYDSSRPTGIPERFSGANSGNTATLTISGALAEDEADYYCQVWDSSAKAAVFGGGTHLTVL | 13.3 | 18.8 | 10.1 | 14.6 | 56.2 | 145 | 3770 | 4.91 | 0.3 | 0.71 | 0.75 |
| PMX178 (monospecific anti-canine CD3, canine IgG-B effector function deficient Fc) (antibody, V domains shown) VH: ELALQESGPGLVRPSQTLSLTCVVSGGSVTRSYYWNWIRQRPGRGLEWMGYWTGTTIYNPAFQGRISITVDTAKNQFSLHLISMTTEDTAVYYCGREGGSSLGAIAYWGQGTRVTVSS VL: SYVLTQLPSKNVTLKQPAHITCGGDNIGRKSVHWYQQKLGQAPVLIIYYDSSRPTGIPERFSGANSGNTATLTISGALAEDEADYYCQVWDSSAKAAVFGGGTHLTVL | 9.79 | 20.5 | 8.41 | 9.23 | 24.7 | 223 | 2110 | 0.84 | 1.13 | 1.83 | 0.16 |
| PMX165 (monospecific anti-canine CD3, canine IgG-B effector function deficient Fc) (antibody) heavy: EVQLVESGGDLVKPGGSLRLSCVASGFNFSASHMSWVRQAPGKGLQWVAYITNAGGRISYADAVKGRFTISRDNAKNTLYLQMSSLRVEDTAVYYCATERPGRRMGLKDYGMDYWGHGTSLFVSSASTTAPSVFPLAPSCGSTSGSTVALACLVSGYFPEPVTVSWNSGSLTSGVHTFPSVLQSSGLYSLSSMVTVPSSRWPSETFTCNVAHPASKTKVDKPVPKRENGRVPRPPDCPKCPAPESLGGPSVFIFPPKPKDTLLIARTPEVTCVVVDLGREDPEVQISWFVDGKQMQTAKTQPREEQFNGTYRVVSVLPIGHQDWLKGKQFTCKVNHIGLPSPIERTISKARGQAHQPSVYVLPPSREELSKNTVSLTCLIKDFFPPDIDVEWQSNGQQEPESKYRTTPPQLDEDGSYFLYSKLSVDKSRWQRGDTFICAVMHEALHNHYTQKSLSHSPGK VL: SYVLTQLPSKNVTLKQPAHITCGGDNIGSKSVHWYQQKLGQAPVLIIYYDSSRPTGIPERFSGANSGNTATLTISGALAEDEADYYCQVWDSSAKASVFGGGTHLTVL | 12.1 | 13.4 | 10.4 | 23.6 | 74.6 | 108 | 1370 | 1.67 | 0.26 | 1.3 | 0 |
| PMX157 (monospecific anti-canine CD3, canine IgG-B effector function deficient Fc) (antibody, V domains shown) VH: ELTLQESGPGLVKPSQTLSLTCVVSGGSVTSSYFWNWIRQRPGRGLEWMGYWTGSTIYSPAFQGRISITPDTAKNQFSLQLSSMTTEDTAVYYCSREGGSTLGAFAYWGQGTLVTVSS VL: SYVLTQLPSKNVTLKQPAHITCGGDKIGSKSVHWYQQKLGQAPVLIIYYDSSRPTGIPERFSGANSGNTATLTISGALAEDEADYYCQVWDSSAKASVFGGGTHLTVL | 9.65 | 11.6 | 9.96 | 8.72 | 44.4 | 209 | 3140 | 1.24 | 0.4 | 0.85 | 0.34 |
| PMX166 (monospecific anti-canine CD3, canine IgG-B effector function deficient Fc) (antibody, V domains shown) VH: ELTLQESGPGLVKPSQTLSLTCVVSGGSVTSSYFWNWIRQRPGRGLEWMGYWTGSTIYSPAFQGRISITPDTAKNQFSLQLSSMTTEDTAVYYCSREGGSTLGAFAYWGQGTLVTVSS VL: SYVLTQLPSKNVTLKQPAHITCGGDNIGSKSVHWYQQKLGQAPVLIIYYDSSRPTGIPERFSGANSGNTATLTISGALAEDEADYYCQVWDSSAKASVFGGGTHLTVL | 11.4 | 14.5 | 9.15 | 22 | 67.6 | 112 | 2780 | 2.77 | 0.95 | 0.92 | 1.28 |
